What was measured:
rpod_ecoli rpoD = rpod_ecoli rpoD (UniProt P00579)
rpos_ecoli rpoS = rpos_ecoli rpoS (UniProt P13445)
ltact_bpt4 33 = biological target: T1, ltact_bpt4 33 (UniProt P13338)
T1 sequence: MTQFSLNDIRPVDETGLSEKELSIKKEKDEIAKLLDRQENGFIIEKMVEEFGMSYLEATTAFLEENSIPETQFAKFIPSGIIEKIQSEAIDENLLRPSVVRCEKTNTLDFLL

Sequence of rpos_ecoli rpoS (P13445 whole entry): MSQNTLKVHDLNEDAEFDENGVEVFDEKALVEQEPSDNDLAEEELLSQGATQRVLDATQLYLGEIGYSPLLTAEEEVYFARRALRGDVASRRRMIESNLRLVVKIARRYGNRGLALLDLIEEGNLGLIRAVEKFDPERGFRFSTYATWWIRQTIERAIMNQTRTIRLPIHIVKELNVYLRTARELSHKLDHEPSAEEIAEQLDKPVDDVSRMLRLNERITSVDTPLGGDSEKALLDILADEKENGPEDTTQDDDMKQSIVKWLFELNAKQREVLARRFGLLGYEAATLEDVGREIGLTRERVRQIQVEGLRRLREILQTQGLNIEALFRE
Sequence of rpod_ecoli rpoD (P00579 whole entry): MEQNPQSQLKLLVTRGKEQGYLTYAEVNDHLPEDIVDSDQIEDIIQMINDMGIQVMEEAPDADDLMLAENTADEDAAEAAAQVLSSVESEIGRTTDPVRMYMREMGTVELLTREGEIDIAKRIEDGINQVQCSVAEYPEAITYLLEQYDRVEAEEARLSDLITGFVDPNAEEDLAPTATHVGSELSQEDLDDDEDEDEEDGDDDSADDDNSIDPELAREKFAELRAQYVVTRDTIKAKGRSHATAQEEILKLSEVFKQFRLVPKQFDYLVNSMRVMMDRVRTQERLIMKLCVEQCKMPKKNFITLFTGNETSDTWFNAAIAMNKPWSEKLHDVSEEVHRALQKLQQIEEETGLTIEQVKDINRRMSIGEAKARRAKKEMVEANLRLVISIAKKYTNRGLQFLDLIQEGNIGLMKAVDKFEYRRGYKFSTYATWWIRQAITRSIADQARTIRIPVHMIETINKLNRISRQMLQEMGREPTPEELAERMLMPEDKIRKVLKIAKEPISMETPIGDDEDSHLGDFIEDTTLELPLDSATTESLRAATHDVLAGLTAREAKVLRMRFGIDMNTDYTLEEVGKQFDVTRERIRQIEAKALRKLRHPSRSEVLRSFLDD

Row | Substance | effect of a mutation on the interaction (rpod_ecoli rpoD) | effect of a mutation on the interaction (rpos_ecoli rpoS) | effect of a mutation on the interaction (ltact_bpt4 33)
1 | DNA-directed RNA polymerase subunit beta (Escherichia coli (strain K12)) (from UniProt P0A8V2) E898A | disrupting interaction strength | decreasing interaction strength | disrupting interaction strength
2 | DNA-directed RNA polymerase subunit beta (Escherichia coli (strain K12)) (from UniProt P0A8V2) E899A | decreasing interaction strength | – | disrupting interaction strength
3 | DNA-directed RNA polymerase subunit beta (Escherichia coli (strain K12)) (from UniProt P0A8V2) F906A | disrupting interaction strength | decreasing interaction strength | disrupting interaction strength
4 | DNA-directed RNA polymerase subunit beta (Escherichia coli (strain K12)) (from UniProt P0A8V2) I905A | disrupting interaction strength | decreasing interaction strength | disrupting interaction strength
5 | DNA-directed RNA polymerase subunit beta (Escherichia coli (strain K12)) (from UniProt P0A8V2) K900A | disrupting interaction strength | – | disrupting interaction strength
6 | DNA-directed RNA polymerase subunit beta (Escherichia coli (strain K12)) (from UniProt P0A8V2) K900E | – | – | disrupting interaction strength
7 | DNA-directed RNA polymerase subunit beta (Escherichia coli (strain K12)) (from UniProt P0A8V2) L901A | disrupting interaction strength | disrupting interaction strength | disrupting interaction strength
8 | DNA-directed RNA polymerase subunit beta (Escherichia coli (strain K12)) (from UniProt P0A8V2) L902A | disrupting interaction strength | decreasing interaction strength | disrupting interaction strength
9 | DNA-directed RNA polymerase subunit beta (Escherichia coli (strain K12)) (from UniProt P0A8V2) R903A | decreasing interaction strength | decreasing interaction strength | disrupting interaction strength
